From patent US20180057604A1 (Genentech, published 2018)
Values joined by “and” are separate entries in the source; they are usually repeats but may differ in a detail not shown here. Equal values may be shown once. Read-outs that look alike come from different tables or passages of the source. Values belong to the binder of their own block, whether it stands above or below them.

Key:
[1] = target: T1, cyno TfR extracellular domain (analogous construct to human TfR ecd) (cynomolgus monkey, UniProt Q5RDH6 87-760 (Pongo abelii entry)); assay: SPR, KD on cyno TfR over KD on human TfR
T1 construct: also called cynoTfR ecd
T1 chain: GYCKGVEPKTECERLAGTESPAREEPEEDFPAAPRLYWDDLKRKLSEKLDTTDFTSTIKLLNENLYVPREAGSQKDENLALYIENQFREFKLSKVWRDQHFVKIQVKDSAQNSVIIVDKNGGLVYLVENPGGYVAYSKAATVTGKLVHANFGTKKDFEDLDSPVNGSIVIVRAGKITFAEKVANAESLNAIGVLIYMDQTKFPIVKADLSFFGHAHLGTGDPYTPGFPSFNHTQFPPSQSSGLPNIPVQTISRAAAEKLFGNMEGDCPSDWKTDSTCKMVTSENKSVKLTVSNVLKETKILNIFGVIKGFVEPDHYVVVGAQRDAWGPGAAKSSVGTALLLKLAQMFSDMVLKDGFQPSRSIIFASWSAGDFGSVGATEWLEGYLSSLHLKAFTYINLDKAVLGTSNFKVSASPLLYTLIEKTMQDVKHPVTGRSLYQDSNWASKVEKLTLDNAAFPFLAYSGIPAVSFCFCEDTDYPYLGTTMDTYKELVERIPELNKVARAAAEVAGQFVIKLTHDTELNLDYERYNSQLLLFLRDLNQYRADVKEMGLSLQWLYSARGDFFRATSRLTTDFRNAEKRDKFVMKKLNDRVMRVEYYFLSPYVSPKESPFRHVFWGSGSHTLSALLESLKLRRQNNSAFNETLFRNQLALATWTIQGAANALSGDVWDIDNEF

[2] = target: T2, human TfR extracellular domain with N-terminal His tag (human, UniProt P02786 89-760); assay: SPR, TfR captured by anti-His, Fab injected;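 for KD: single cycle kinetics with a Fab dilution series, fitted by a one-to-one Langmuir model or a steady state model, KD taken as koff over kon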
T2 construct: Biotinylated in some assays; also called huTfR; HuTfR

[3] = target: T1, cyno TfR extracellular domain …; assay: SPR, TfR captured by anti-His, Fab injected;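 for KD: single cycle kinetics with a Fab dilution series, fitted by a one-to-one Langmuir model or a steady state model, KD taken as koff over kon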
[4] = target: T2, human TfR extracellular domain with …; assay: SPR, Fab
[5] = target: T1, cyno TfR extracellular domain …; assay: SPR, Fab
[6] = target: T2, human TfR extracellular domain with …; assay: SPR, TfR captured by anti-His, Fab injected; remark: listed apart in the source;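 for KD: single cycle kinetics with a Fab dilution series, fitted by a one-to-one Langmuir model or a steady state model, KD taken as koff over kon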
[7] = target: T1, cyno TfR extracellular domain …; assay: SPR, TfR captured by anti-His, Fab injected;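 for KD: single cycle kinetics with a Fab dilution series, fitted by a one-to-one Langmuir model or a steady state model, KD taken as koff over kon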
[8] = target: T1, cyno TfR extracellular domain …; assay: SPR, KD on cyno TfR over KD on human TfR
[9] = target: T2, human TfR extracellular domain with …; assay: SPR, TfR captured by anti-His, Fab injected; remark: listed apart in the source
[10] = target: T1, cyno TfR extracellular domain …; assay: SPR, TfR captured by anti-His, Fab injected
[11] = target: T1, cyno TfR extracellular domain …; assay: SPR, KD on cyno TfR over KD on human TfR
[12] = target: T2, human TfR extracellular domain with …; assay: ELISA, TfR-coated plate, IgG
[13] = target: T1, cyno TfR extracellular domain …; assay: ELISA, TfR-coated plate, IgG
[14] = target: T2, human TfR extracellular domain with …; assay: ELISA, IgG
[15] = target: T1, cyno TfR extracellular domain …; assay: ELISA, IgG
[16] = target: T2, human TfR extracellular domain with …; assay: ELISA, immobilized huTfR, with and without 6.3 uM holo-Tf
[17] = target: T2, human TfR extracellular domain with …; assay: SPR SCK 1:1 fit, IgG
[18] = target: T1, cyno TfR extracellular domain …; assay: SPR SCK 1:1 fit, IgG
[19] = target: T2, human TfR extracellular domain with …; assay: SPR, IgG;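 note: His-tagged TfR captured via immobilized anti-His antibody on a CM5 chip, antibody injected in 3-fold dilution series by single cycle kinetics, 1:1 Langmuir or steady-state fit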
[20] = target: T1, cyno TfR extracellular domain …; assay: SPR, IgG;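 note: His-tagged TfR captured via immobilized anti-His antibody on a CM5 chip, antibody injected in 3-fold dilution series by single cycle kinetics, 1:1 Langmuir or steady-state fit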
[21] = target: TfR (species not stated, Table 15); assay: SPR, Fab
[22] = target: T3, human BACE1 (R&D Systems) (human, UniProt P56817); assay: SPR (Biacore)
T3 construct: recombinant, commercial (R&D Systems)

[23] = target: murine BACE1 ECD; assay: cell-based or functional assay
[24] = target: human BACE1 ECD; assay: cell-based or functional assay
[25] = target: T4, murine BACE1 ECD; assay: Octet, pH 5.0, second run
T4 construct: analyte of the Octet assay (200 nM) and enzyme of the first short substrate assay

[26] = target: T5, human BACE1 ECD; assay: Octet, pH 5.0, second run
T5 construct: analyte of the Octet assay (200 nM) and enzyme of the first short substrate assay; also called human BACE1 extracellular domain

[27] = target: T4, murine BACE1 ECD; assay: Octet, pH 7.5;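 note: antibodies captured on anti-human capture biosensor tips, dissociation followed in PBS with BSA buffer, kinetics fitted with a one-to-one binding model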
[28] = target: T5, human BACE1 ECD; assay: Octet, pH 7.5;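 note: antibodies captured on anti-human capture biosensor tips, dissociation followed in PBS with BSA buffer, kinetics fitted with a one-to-one binding model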
[29] = target: T3, human BACE1 (R&D Systems); assay: SPR (Biacore), second run
[30] = target: BACE1 (HTRF long substrate and FRET short substrate assays of Example 9D); assay: cell-based or functional assay
[31] = target: T4, murine BACE1 ECD; assay: Octet, pH 5.0
[32] = target: T5, human BACE1 ECD; assay: Octet, pH 5.0
[33] = target: BACE1 in primary mouse cortical neurons (mouse, UniProt P56818 46-501); assay: cell-based or functional assay
[34] = target: T4, murine BACE1 ECD; assay: Octet, pH 7.5, second run
[35] = target: T5, human BACE1 ECD; assay: Octet, pH 7.5, second run
[36] = target: T2, human TfR extracellular domain with …; assay: SPR, biotinylated TfR on streptavidin, bispecific injected
[37] = target: T1, cyno TfR extracellular domain …; assay: as above

BACE1 in primary mouse cortical neurons, sequence (P56818 46-501): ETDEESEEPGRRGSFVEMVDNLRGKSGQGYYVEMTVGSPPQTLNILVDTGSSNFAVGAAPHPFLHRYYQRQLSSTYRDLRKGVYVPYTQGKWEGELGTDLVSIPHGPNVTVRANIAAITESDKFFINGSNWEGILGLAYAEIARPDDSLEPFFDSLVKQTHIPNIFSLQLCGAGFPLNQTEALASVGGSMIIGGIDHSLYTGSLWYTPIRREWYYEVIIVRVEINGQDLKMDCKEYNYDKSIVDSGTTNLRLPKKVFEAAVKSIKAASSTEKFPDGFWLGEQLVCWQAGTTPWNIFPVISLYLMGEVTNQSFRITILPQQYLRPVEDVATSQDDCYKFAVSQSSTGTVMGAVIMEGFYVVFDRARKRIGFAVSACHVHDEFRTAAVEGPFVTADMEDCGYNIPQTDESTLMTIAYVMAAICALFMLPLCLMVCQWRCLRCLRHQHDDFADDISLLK
T5 sequence (single chain, as listed by the source limits assumed): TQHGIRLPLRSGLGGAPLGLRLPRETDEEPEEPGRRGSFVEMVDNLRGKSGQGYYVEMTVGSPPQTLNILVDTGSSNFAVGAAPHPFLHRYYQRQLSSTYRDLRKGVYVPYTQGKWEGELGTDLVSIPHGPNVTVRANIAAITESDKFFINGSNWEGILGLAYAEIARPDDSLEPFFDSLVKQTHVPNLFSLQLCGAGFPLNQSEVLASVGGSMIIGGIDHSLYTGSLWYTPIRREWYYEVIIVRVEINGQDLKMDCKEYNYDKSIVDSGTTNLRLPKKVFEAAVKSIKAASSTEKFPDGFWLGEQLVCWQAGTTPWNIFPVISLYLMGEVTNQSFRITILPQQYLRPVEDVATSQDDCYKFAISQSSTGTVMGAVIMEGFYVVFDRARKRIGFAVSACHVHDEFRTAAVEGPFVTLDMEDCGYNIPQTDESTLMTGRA
T4 sequence (single chain, as listed by the source limits assumed): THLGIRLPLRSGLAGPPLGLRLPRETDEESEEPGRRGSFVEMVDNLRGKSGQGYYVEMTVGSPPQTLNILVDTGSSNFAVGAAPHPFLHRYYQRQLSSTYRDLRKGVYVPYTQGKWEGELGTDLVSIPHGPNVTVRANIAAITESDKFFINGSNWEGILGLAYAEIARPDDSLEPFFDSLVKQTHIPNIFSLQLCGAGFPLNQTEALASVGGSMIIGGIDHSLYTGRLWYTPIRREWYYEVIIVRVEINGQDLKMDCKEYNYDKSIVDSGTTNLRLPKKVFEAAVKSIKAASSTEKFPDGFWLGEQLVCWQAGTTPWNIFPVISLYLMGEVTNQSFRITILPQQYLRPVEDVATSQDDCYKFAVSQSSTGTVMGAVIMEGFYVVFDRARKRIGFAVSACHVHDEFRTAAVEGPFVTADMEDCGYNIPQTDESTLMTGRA
T3 sequence (P56817 22-457 limits assumed): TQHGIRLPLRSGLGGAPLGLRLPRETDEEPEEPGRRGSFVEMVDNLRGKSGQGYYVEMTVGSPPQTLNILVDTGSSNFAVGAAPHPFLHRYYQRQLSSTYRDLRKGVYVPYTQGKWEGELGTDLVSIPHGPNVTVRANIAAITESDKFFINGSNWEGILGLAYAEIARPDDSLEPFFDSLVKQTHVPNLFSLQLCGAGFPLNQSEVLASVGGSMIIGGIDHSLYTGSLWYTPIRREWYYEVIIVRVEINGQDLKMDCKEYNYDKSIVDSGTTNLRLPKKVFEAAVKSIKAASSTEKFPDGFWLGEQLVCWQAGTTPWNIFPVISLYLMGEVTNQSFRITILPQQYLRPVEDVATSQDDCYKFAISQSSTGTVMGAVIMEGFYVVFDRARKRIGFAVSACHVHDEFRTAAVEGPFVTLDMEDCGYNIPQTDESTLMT

EC50 [12]: 0.8 ng/mL
EC50 [13]: 1.8 ng/mL
EC50 [14]: 16 ng/mL
EC50 [15]: 20 ng/mL
EC50 (read off the curve) [16]: ~5 ng/mL
Kd [17]: 3.3 nM
Kd [18]: 12 nM
Kd [19]: 3.33 nM
Kd [20]: 11.8 nM
B2: hu15G11.v5 IgG (antibody, V domains shown)
VH: EVQLVQSGAEVKKPGASVKVSCKASGYTFTSYWMHWVRQAPGQRLEWIGEINPTNGRTNYIEKFKSRATLTVDKSASTAYMELSSLRSEDTAVYYCARGTRAYHYWGQGTMVTVSS
VL: DIQMTQSPSSLSASVGDRVTITCRASDNLYSNLAWYQQKPGKSPKLLVYDATNLADGVPSRFSGSGSGTDYTLTISSLQPEDFATYYCQHFWGTPLTFGQGTKVEIK
notes: Human IgG (detected with anti-human Fc gamma); also called humanized 15G11.v5

Kd [21]: 55 nM
B3: Hu15G11.HC52A Fab (Fab, V domains shown)
VH: EVQLVQSGAEVKKPGASVKVSCKASGYTFTSYWMHWVRQAPGQRLEWIGEIAPTNGRTNYIEKFKSRATLTVDKSASTAYMELSSLRSEDTAVYYCARGTRAYHYWGQGTMVTVSS
VL: DIQMTQSPSSLSASVGDRVTITCRASDNLYSNLAWYQQKPGKSPKLLVYDATNLADGVPSRFSGSGSGTDYTLTISSLQPEDFATYYCQHFWGTPLTFGQGTKVEIK
notes: Fab; also called antiTfR.52A.Fab; 15G11.52A Fab

Kd [36]: 9 nM
Kd [37]: 23.7 nM
B5: Anti-TfR1/6266.hIgG1.N297G (bispecific antibody, V domains shown)
VH 1: EVQLVQSGAEVKKPGASVKVSCKASGYTFTSYWMHWVRQAPGQRLEWIGEINPTNGRTNYIEKFKSRATLTVDKSASTAYMELSSLRSEDTAVYYCARGTRAYHYWGQGTMVTVSS
VL 1: DIQMTQSPSSLSASVGDRVTITCRASDNLYSNLAWYQQKPGKSPKLLVYDATNLADGVPSRFSGSGSGTDYTLTISSLQPEDFATYYCQHFWGTPLTFGQGTKVEIK
VH 2: EVQLVQSGAEVKKPGSSVKVSCKASGGTLSGYGVSWVRQAPGQGLEWMGNIIPGFGTANYAQKFQGRVTITADESTSTAYMELSSLRSEDTAVYYCARSGGTKYGMLDVWGQGTMVTVSS
VL 2: EIVMTQSPATLSVSPGERATLSCRASQSVSSNLAWYQQKPGQAPRLLIYGASTRATGIPARFSGSGSGTEFTLTISSLQSEDFAVYYCQQLILWPPRTFGGGTKVEIK
notes: Knob-in-hole human IgG1 with N297G

The remaining lines, values behind:

B1: Hu15G11.v5.Fab (Fab, V domains shown)
VH: EVQLVQSGAEVKKPGASVKVSCKASGYTFTSYWMHWVRQAPGQRLEWIGEINPTNGRTNYIEKFKSRATLTVDKSASTAYMELSSLRSEDTAVYYCARGTRAYHYWGQGTMVTVSS
VL: DIQMTQSPSSLSASVGDRVTITCRASDNLYSNLAWYQQKPGKSPKLLVYDATNLADGVPSRFSGSGSGTDYTLTISSLQPEDFATYYCQHFWGTPLTFGQGTKVEIK
notes: Fab
Cy/hu ratio [1]: 4
koff [2]: 0.00474 s⁻¹
kon [2]: 674000 M⁻¹ s⁻¹
koff [3]: 0.0127 s⁻¹
kon [3]: 451000 M⁻¹ s⁻¹
Kd [4]: 4.7 nM
Kd [5]: 16 nM
Kd [6]: 4.7 nM
koff [6]: 0.00406 s⁻¹ and 0.00364 s⁻¹
kon [6]: 456000 M⁻¹ s⁻¹ and 776000 M⁻¹ s⁻¹
koff [7]: 0.0218 s⁻¹
kon [7]: 1.41e+06 M⁻¹ s⁻¹
Cy/hu ratio [8]: 3.4
koff [9]: 0.00474 s⁻¹
kon [9]: 674000 M⁻¹ s⁻¹
koff [10]: 0.0127 s⁻¹
kon [10]: 451000 M⁻¹ s⁻¹
Cyno/human ratio [11]: 4

B4: 5884 (antibody, V domains shown)
VH: QVQLVQSGAEVKKPGSSVKVSCKASGGTFSGYGISWVRQAPGQGLEWMGNIIPGFGTANYAQKFQGRVTITADESTSTAYMELSSLRSEDTAVYYCARSGGTKYGMLDVWGQGTMVTVSS
VL: EIVMTQSPATLSVSPGERATLSCRASQSVSSNLAWYQQKPGQAPRLLIYGASTRATGIPARFSGSGSGTEFTLTISSLQSEDFAVYYCQQLILWPPRTFGGGTKVEIK
notes: anti-BACE1 IgG
Kd [22]: 2.62 nM
% inhibition of BACE1 activity, short FRET substrate [23]: -243%
% inhibition of BACE1 activity, short FRET substrate [24]: -102%
Kd [25]: 1.3 nM
Kd [26]: 0.86 nM
Kd [27]: 1.3 nM
Kd [28]: 0.92 nM
Kd [29]: 5.23 nM
EC50, FRET short substrate [30]: 0.478 nM
EC50, HTRF long substrate [30]: 7.76 nM
Kd [31]: 2 nM
Kd [32]: 1.4 nM
IC50, Abeta x-40 in mouse cortical neurons [33]: 4.56 nM
IC50, Abeta x-40 in mouse cortical neurons (5884*, second run) [33]: 3.51 nM
maximal % inhibition of Abeta x-40 [33]: 83%
Kd [34]: 0.49 nM
Kd [35]: 0.46 nM
